Test results reported in paper PMC1669733.

Tests used:
[1] = target: His-Rep 1–362 (full-length Rep protein of Mungbean yellow mosaic India virus) (Mungbean yellow mosaic India virus (MYMIV)); assay: sucrose gradient centrifugation
[2] = target: His-Rep 120–362 (Mungbean yellow mosaic India virus (MYMIV)); assay: sucrose gradient centrifugation

Question: For “His-Rep 1–362 (full-length Rep protein of Mungbean yellow mosaic India virus) (enzyme)”, which stoichiometry N [1] is on record?
Answer: Its stoichiometry N is 24.

Question: Which stoichiometry N [2] does the source give for His-Rep 120–362 (domain or fragment) here?
Answer: The stoichiometry N was 24.
